Test system: K4 kissing-loop RNA reporter
Experiment: apparent KD of K4 kissing-loop reporter; higher = weaker reporter binding
Settings: Eterna round: R107
Protocol: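 RNA-MaP round R107: designed RNA switches with theophylline, tryptophan, arginine or FMN aptamers are transcribed on-chip within common flanks. They are titrated with a labelled K4 kissing-loop RNA reporter in RNA-MaP buffer (100 mM Tris pH 7.5, 80 mM KCl, 4 mM MgCl2), without ligand or with the indicated ligand. Median apparent KD per design.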

[1] = input ligand: theophylline 20 uM
[2] = input ligand: tryptophan 2.4 mM
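Note: bound reporter read as fluorescence of individual clusters on recovered sequencing chips by microscopy, with normalized cluster intensities fitted with a binding model.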

UCCUAGGCUCGAAAGAGCCUAGGAUUAUCUCAGGAUAUCCGGAAACGGAGAAGGGAGAAACUAGUGAUGUUAGGGAUUCCCUCUU
apparent KD of K4 kissing-loop reporter (input ligand: FMN 200 uM): 0.421 µM | apparent KD of K4 kissing-loop reporter (input ligand: arginine 13.2 mM): 0.11 µM | apparent KD of K4 kissing-loop reporter (input ligand: none): 0.145 µM | apparent KD of K4 kissing-loop reporter [1]: 0.135 µM | apparent KD of K4 kissing-loop reporter [2]: 0.126 µM

AUAAUUAUAUAGAAAUAUAUAAUUAUAUAACGAGGACCGGUACGGCCGCCACUCGUGCCGGGCAUAAAAUGAGUGAUGUUCAUGU [KL-XTryp-A7 #analogue]
apparent KD of K4 kissing-loop reporter (input ligand: FMN 200 uM): 0.205 µM | apparent KD of K4 kissing-loop reporter (input ligand: arginine 13.2 mM): 0.228 µM | apparent KD of K4 kissing-loop reporter (input ligand: none): 0.212 µM | apparent KD of K4 kissing-loop reporter [1]: 0.193 µM | apparent KD of K4 kissing-loop reporter [2]: 0.198 µM

UGACUGGACUGAAGGAGCGCGCGAGACAAAGUCUCGAACUCUUAGUGAUGUUAGGAAAUAACGCAGGUAGGUCGCAGUCUAGUCU
apparent KD of K4 kissing-loop reporter (input ligand: FMN 200 uM): 0.381 µM | apparent KD of K4 kissing-loop reporter (input ligand: arginine 13.2 mM): 0.247 µM | apparent KD of K4 kissing-loop reporter (input ligand: none): 0.332 µM | apparent KD of K4 kissing-loop reporter [1]: 0.473 µM | apparent KD of K4 kissing-loop reporter [2]: 0.408 µM

AUUUGUUUAUGUGAUACCAGACUUUGCAGUGAUGUUGCUUUUAUUUUUGAAUUUUAAAUAGUCCCUUGGCAGCACUAUGUAUUUA [JR_SSTheophyB_Sub009]
apparent KD of K4 kissing-loop reporter (input ligand: FMN 200 uM): 0.0655 µM | apparent KD of K4 kissing-loop reporter (input ligand: arginine 13.2 mM): 0.132 µM | apparent KD of K4 kissing-loop reporter (input ligand: none): 0.0828 µM | apparent KD of K4 kissing-loop reporter [1]: 0.137 µM | apparent KD of K4 kissing-loop reporter [2]: 0.0606 µM

GAUGGUGGCAGUGAAGUGAUGUUUCAUGAUACCAGUUUUAUAAGUAACCCUUGGCAGCAUCGUACGCAGCGUAGUGGACAUCACG [theeternabot_exclusion_KL_Theo_A_25]
apparent KD of K4 kissing-loop reporter (input ligand: FMN 200 uM): 0.129 µM | apparent KD of K4 kissing-loop reporter (input ligand: arginine 13.2 mM): 0.128 µM | apparent KD of K4 kissing-loop reporter (input ligand: none): 0.14 µM | apparent KD of K4 kissing-loop reporter [1]: 0.241 µM | apparent KD of K4 kissing-loop reporter [2]: 0.149 µM

AAACAUCACUGGGAGUGAUGUUCUCAGUGACGAGGACCGGUACGGCCGCCACUCGCGAGAGAUUUAGUCUAGUAUUGACUGCAUU [Excl Tryptophan A V11]
apparent KD of K4 kissing-loop reporter (input ligand: FMN 200 uM): 0.294 µM | apparent KD of K4 kissing-loop reporter (input ligand: arginine 13.2 mM): 0.273 µM | apparent KD of K4 kissing-loop reporter (input ligand: none): 0.304 µM | apparent KD of K4 kissing-loop reporter [1]: 0.353 µM | apparent KD of K4 kissing-loop reporter [2]: 0.358 µM

UGUCAUUGGUCUGAUACCAGUUGAUAAACUGGAGUGAUGUUCCAAGAACGAGAAACUCGCAACCCUUGGCAGCAGACCGAUGACU [TheoBS 17 #SwitchBubble 13 #StaticStem]
apparent KD of K4 kissing-loop reporter (input ligand: FMN 200 uM): 0.302 µM | apparent KD of K4 kissing-loop reporter (input ligand: arginine 13.2 mM): 0.0669 µM | apparent KD of K4 kissing-loop reporter (input ligand: none): 0.17 µM | apparent KD of K4 kissing-loop reporter [1]: 0.4 µM | apparent KD of K4 kissing-loop reporter [2]: 0.132 µM

AAGGUCACUACUACAGUGAUGUUGUGGGAGCAGGAUAUGCAGAAAUGCAGAAGGGCUCGCUCCAGGUGACCGAAUGAAACAUUCA [whbob_SS_FMNA__2th174]
apparent KD of K4 kissing-loop reporter (input ligand: FMN 200 uM): 1.5 µM | apparent KD of K4 kissing-loop reporter (input ligand: arginine 13.2 mM): 0.882 µM | apparent KD of K4 kissing-loop reporter (input ligand: none): 1.78 µM | apparent KD of K4 kissing-loop reporter [1]: 1.14 µM | apparent KD of K4 kissing-loop reporter [2]: 1.14 µM

GGAUCCACCAGUGAUGUUGGAGAAAACUCCAAGGAUAUGACGAAAGUCAGAAGGUGGUAGACUGGUCAAAGUCCGGUCGGAUCCA [FmnA10 U66]
apparent KD of K4 kissing-loop reporter (input ligand: FMN 200 uM): 0.297 µM | apparent KD of K4 kissing-loop reporter (input ligand: arginine 13.2 mM): 0.0774 µM | apparent KD of K4 kissing-loop reporter (input ligand: none): 0.338 µM | apparent KD of K4 kissing-loop reporter [1]: 0.297 µM | apparent KD of K4 kissing-loop reporter [2]: 0.262 µM

CGAGUACAUUGCGAUACCAGCGAUAGCAGUUCAACGCGCAGUCCGUUUAGUGAUGUUAGACGCCCUUGGCAGCGCUUCCUGGCAA [theeternabot_exclusion_KL_Theo_B_44]
apparent KD of K4 kissing-loop reporter (input ligand: FMN 200 uM): 0.519 µM | apparent KD of K4 kissing-loop reporter (input ligand: arginine 13.2 mM): 0.324 µM | apparent KD of K4 kissing-loop reporter (input ligand: none): 0.46 µM | apparent KD of K4 kissing-loop reporter [1]: 0.52 µM | apparent KD of K4 kissing-loop reporter [2]: 0.393 µM

GGGAGGAAAAUUUUCCUCAAAAGUUGGCUACAGGAUAUCGUGGGAAUGAGAAGGGUAACCGAGACGCCCAGUGAUGUUGGGUGCC [Antegete]
apparent KD of K4 kissing-loop reporter (input ligand: FMN 200 uM): 0.415 µM | apparent KD of K4 kissing-loop reporter (input ligand: arginine 13.2 mM): 0.247 µM | apparent KD of K4 kissing-loop reporter (input ligand: none): 0.318 µM | apparent KD of K4 kissing-loop reporter [1]: 0.251 µM | apparent KD of K4 kissing-loop reporter [2]: 0.245 µM

GCCGUACGCAUGGAUACCAGCAGAACUGCCCUCCCAGUGAUGUUGGGAGGAUCUUUCCUAUGCCCUUGGCAGCCAUGCGUACGGC
apparent KD of K4 kissing-loop reporter (input ligand: FMN 200 uM): 0.148 µM | apparent KD of K4 kissing-loop reporter (input ligand: arginine 13.2 mM): 0.113 µM | apparent KD of K4 kissing-loop reporter (input ligand: none): 0.126 µM | apparent KD of K4 kissing-loop reporter [1]: 0.117 µM | apparent KD of K4 kissing-loop reporter [2]: 0.117 µM

AUAAACUUGCAGUGAUGUUGCAAGUAAGACUAGGAUAUCAGGAAACUGAGAAGGAGUCAUCUCCUUCACUUGCAACUAGGAGGAG [[K1]-[K2]-[F1]-[F2]-[F]'-[K]'-[F]''_Design6]
apparent KD of K4 kissing-loop reporter (input ligand: FMN 200 uM): 0.122 µM | apparent KD of K4 kissing-loop reporter (input ligand: arginine 13.2 mM): 0.0934 µM | apparent KD of K4 kissing-loop reporter (input ligand: none): 0.143 µM | apparent KD of K4 kissing-loop reporter [1]: 0.144 µM | apparent KD of K4 kissing-loop reporter [2]: 0.133 µM

AUUCUUUUUUUGAUGUUUUUUGUAUAAUGGCAGGAUAUCGUAGAAGCGAGAAGGGCUUUUAUGCGUUAUGAGUGAUGUUUGUAGG [szeewvmullin]
apparent KD of K4 kissing-loop reporter (input ligand: FMN 200 uM): 0.254 µM | apparent KD of K4 kissing-loop reporter (input ligand: arginine 13.2 mM): 0.262 µM | apparent KD of K4 kissing-loop reporter (input ligand: none): 0.261 µM | apparent KD of K4 kissing-loop reporter [1]: 0.34 µM | apparent KD of K4 kissing-loop reporter [2]: 0.205 µM

UUUUAAAUGUCUGAUACCAGAGAAAAUAUAUGUAGUGAUGUUACAUACAAAUUUAAUAAGCUCCCUUGGCAGCAGUAUGAAUUUU [AstrosExc-TheB#15]
apparent KD of K4 kissing-loop reporter (input ligand: FMN 200 uM): 0.0446 µM | apparent KD of K4 kissing-loop reporter (input ligand: arginine 13.2 mM): 0.0667 µM | apparent KD of K4 kissing-loop reporter (input ligand: none): 0.0559 µM | apparent KD of K4 kissing-loop reporter [1]: 0.067 µM | apparent KD of K4 kissing-loop reporter [2]: 0.0495 µM

GGGCAAGUGAGUGAUGUUCGAUGAUGCUUAAAGGAUAUGUAGGAAUACAGAAGGUUAUAUUCCCUGACAUUAGAUCUUUACAGGG [theeternabot_exclusion_KL_FMN_A_44]
apparent KD of K4 kissing-loop reporter (input ligand: FMN 200 uM): 0.117 µM | apparent KD of K4 kissing-loop reporter (input ligand: arginine 13.2 mM): 0.134 µM | apparent KD of K4 kissing-loop reporter (input ligand: none): 0.105 µM | apparent KD of K4 kissing-loop reporter [1]: 0.151 µM | apparent KD of K4 kissing-loop reporter [2]: 0.0904 µM

AGUGAUGUGGGAAGGAGCGCUAUAAGACUUCAGUGAUGUUGAAGUGCUGGUUUAGUGUUGUAGCAGGUAGGUCGCCUAGAUGUUA [KL-XARG-B11]
apparent KD of K4 kissing-loop reporter (input ligand: FMN 200 uM): 0.293 µM | apparent KD of K4 kissing-loop reporter (input ligand: arginine 13.2 mM): 0.239 µM | apparent KD of K4 kissing-loop reporter (input ligand: none): 0.275 µM | apparent KD of K4 kissing-loop reporter [1]: 0.196 µM | apparent KD of K4 kissing-loop reporter [2]: 0.218 µM

UUCUACGAGUGAUGUUCGUAGUGUAAUAGCUAGGAUAUCGUUUUUUCGAGAAGGAGCUUCGAAGUGAUACGAAAGUAUCGCUUCG [FMN A 12]
apparent KD of K4 kissing-loop reporter (input ligand: FMN 200 uM): 0.227 µM | apparent KD of K4 kissing-loop reporter (input ligand: arginine 13.2 mM): 0.369 µM | apparent KD of K4 kissing-loop reporter (input ligand: none): 0.349 µM | apparent KD of K4 kissing-loop reporter [2]: 0.264 µM

Reference: the supplement of paper PMC9170038
